Source: PMC4119751 (Biochemistry, 2013)
Substitutions are numbered along the chain they refer to. Read-outs that look alike come from different tables or passages of the source. Bridge positions count the residues as written; N and C are the ends. Ends that are not written are not given here.

B1: Fv 447–52D Tyr^H100JThr (other, human)
VH: EVQLVESGGGLVKPGGSLRLTCVASGFTFSDVWLNWVRQAPGKGLEWVGRIKSRTDGGTTDYAASVKGRFTISRDDSKNTLYLQMNSLKTEDTAVYSCTTDGFIMIRGVSEDYYYTYMDVWGKGTTVTVSS
VL: QSVLTQPPSVSAAPGQKVTISCSGSSSNIGNNYVLWYQQFPGTAPKLLIYGNNKRPSGIPDRFSGSKSGTSATLGITGLQTGDEADYFCATWDSGLSADWVFGGGTKLTVL
B2: Fv 447–52D Trp^L96Ala (other, human)
VH: B1 VH with T116Y
VL: B1 VL with W100A
B3: Fv 447–52D Trp^H33Ala (other, human)
VH: B1 VH with W33A, T116Y
VL: B1 VL
B4: Fv 447–52D Trp^L91Ala (other, human)
VH: B1 VH with T116Y
VL: B1 VL with W92A
B5: Fv 447–52D wild type (other, human)
VH: B1 VH with T116Y
VL: B1 VL
B6: Fv 447–52D Asp^H95Asn (other, human)
VH: B1 VH with D101N, T116Y
VL: B1 VL

Columns and labels:
wild type Fv 447–52D = assay: ITC, V3 peptide variants titrated into wild type Fv 447–52D; assay type: binding, human; conditions: linear and cyclic V3 with wild type Fv, ITC 25 °C
[1] = molecular target: V3_(MNCYCLIC) 14mer peptide … (HIV-1 strain MN); assay: ITC
[2] = molecular target: Env of HIV-1 SF162 on pseudovirus (HIV-1 strain SF162)
[3] = molecular target: T1, 14-mer V3 peptide KRIHIGPGRAFYTT (MN sequence) (HIV-1 strain MN, V3 crown (peptide)); assay: ITC
T1 chain: KRIHIGPGRAFYTT

[4] = molecular target: T1, 14-mer V3 peptide KRIHIGPGRAFYTT (MN …); assay: ITC
[5] = molecular target: T1, 14-mer V3 peptide KRIHIGPGRAFYTT (MN …); assay: ITC
SF162 pseudovirus = assay: TZM-bl neutralization assay against SF162 pseudovirus; assay type: cell-based, HIV-1; conditions: Fv mutant vs wild type Fv
[6] = molecular target: T2, V3 peptide with Arg^315Gln mutation KRIHIGPGQAFYTT (HIV-1 strain MN, V3 crown, Arg315Gln …, point mutant); assay: ITC
T2 chain: KRIHIGPGQAFYTT

Row | Molecule | IC50 of neutralisation of SF162 pseudovirus, TZM-bl cells (luciferase) [2] [µM] | other [3] [kcal/mol] | Kd [4] [µM] | also measured
1 | CRIHIGPGRAFYTC (disulfide 1-14 (inferred)) [V3 Cyclic] |  |  |  | effect of cyclization on affinity (in words) (wild type Fv 447–52D): cyclization of the V3 crown did not affect much of its interaction with mAb 447–52D
2 | Fv 447–52D wild type | 19 |  |  | Kd [1]: 0.016 µM
3 | B1 | 23 | 3.3 | 1.3 | 
4 | B2 | 50 | 1.22 |  | Kd [5]: 1.8 µM
5 | B3 | 68 | 4.02 | 3.9 | 
6 | B4 | 76 | 4.72 |  | fold decrease in neutralization capability (SF162 pseudovirus): 4.0 fold; Kd [5]: 5.4 µM
7 | B5 |  |  | 0.023 | Kd [6]: 5.1 µM; dH [3]: -8.54 kcal/mol
8 | B6 | 41 | 5.04 | 3.9 | 
